Results reported in publication PMC6797804 (2019).
Changes are numbered by the printed parent chain. Ends that are not written are not given here. * marks the point of attachment. Crotonyl(E) = C/C=C/C(=O)*

T1: MORF DPF domain (residues 211–322) F287A/R306E/K309E (human, UniProt Q8WYB5 211-322, F287A | R306E | K309E)
T1 sequence: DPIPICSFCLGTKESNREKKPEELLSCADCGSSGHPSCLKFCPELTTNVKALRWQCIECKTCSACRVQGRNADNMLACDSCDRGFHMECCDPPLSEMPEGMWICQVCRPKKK

T2: MORF DPF domain (residues 211–322) F218A (human, UniProt Q8WYB5 211-322, F218A)
T2 sequence: T1 sequence with F8A, A77F, E96R, E99K

T3: MORF DPF domain (residues 211–322), wild type (human, UniProt Q8WYB5 211-322)
T3 chain: T1 sequence with A77F, E96R, E99K


Assays:
[1] = molecular target: T1, MORF DPF domain (residues 211–322) …; experiment: NMR
[2] = molecular target: MORF DPF domain (residues 211–322) F287A (human, UniProt Q8WYB5 211-322, F287A); experiment: NMR
Chain of MORF DPF domain (residues 211–322) F287A (Q8WYB5 211-322 F287A): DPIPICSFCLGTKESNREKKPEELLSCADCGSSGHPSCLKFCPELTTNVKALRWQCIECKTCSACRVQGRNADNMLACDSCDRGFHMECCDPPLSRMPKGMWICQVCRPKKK

[3] = molecular target: T2, MORF DPF domain (residues 211–322) F218A
[4] = molecular target: T3, MORF DPF domain (residues 211–322), …

Kd [1] [µM] | Kd [2] [mM] | Kd [3] [µM] | Kd [4] [µM] | Binder
285 | – | – | – | ARTKQTARKSTGGK(Crotonyl(E))APRKQ [histone H3K14cr peptide (residues 1–19 of H3)]
– | 8 | 3.3 | 3.6 | ARTKQTARKSTGGKAPRKQ [unmodified histone H3 peptide (residues 1–19 of H3)]
